Patent US20190322748A1 (Hoffmann-La Roche, published 2019)
Like-named read-outs stand apart in the source and are kept apart here.

B1: Tim3_0021 (antibody, V domains shown)
VH: QVQLQQSGPQLVRPGASVQISCKASGYSFTSYLLHWLKQRPGQGLEWIGMIDPSDSETRLNQKFKDKATLTVDKSSSTAYMQLSSPTSEDSAVYYCARDGYYAWYYFDCWGQGTTLTVSS
VL: DIVLTQSPATLSVTPGDRVSLSCRASQSIGNNLHWYQQKSHESPRLLIKYASHSISGIPSKFSGTGSGTDFTLSFNSVETEDFGMYFCQQSNSWPLTFGAGTKLELK
B2: Tim3_0026 (antibody, V domains shown)
VH: QIQLVQSGPELKKPGETVKISCKASGYTFTDYSMHWVKQAPGRGLKWMGYINTETYEPTFGADFKGRFAFSLDTSATTAYLQINSLKTEDTATFFCGGGGYPAYWGQGTVVIVSA
VL: DVLMTQTPLSLPVSLGDQASISCRSSRTILHSSGNTYLEWYLQKPGQSPKLLIYKVSNRFSGVPDRFSGSGSGTDFTLNISRVEAEDLGVYYCFQDSHVPFTFGTGTKLEIK
B3: Tim3_0033 (antibody, V domains shown)
VH: QGQMHQSGAELVKPGSSVKLSCKTSGFTFSSSFISWLKQKPGQSLEWIAWIYAATGSTSYNQKFTNKAQLTVDTSSSAAYMQFSSLTTEDSAIYYCARHAGYPHYYAMDYWGQGTSVTVSS
VL: DIQMTQSPASLSASVGETVTITCRASENIFSNLAWYQQKQGKSPQLLVYSATNLGDGVPSRFSGSGSGTQFSLKINSLQPEDFGNYYCQHFYKIPFTFGTGTKLEIK
B4: 2+2 PD1TIM3_0358 (chimeric PD1-0103 / Tim3-0028) (bispecific antibody, human IgG1, kappa, L234A L235A)
heavy: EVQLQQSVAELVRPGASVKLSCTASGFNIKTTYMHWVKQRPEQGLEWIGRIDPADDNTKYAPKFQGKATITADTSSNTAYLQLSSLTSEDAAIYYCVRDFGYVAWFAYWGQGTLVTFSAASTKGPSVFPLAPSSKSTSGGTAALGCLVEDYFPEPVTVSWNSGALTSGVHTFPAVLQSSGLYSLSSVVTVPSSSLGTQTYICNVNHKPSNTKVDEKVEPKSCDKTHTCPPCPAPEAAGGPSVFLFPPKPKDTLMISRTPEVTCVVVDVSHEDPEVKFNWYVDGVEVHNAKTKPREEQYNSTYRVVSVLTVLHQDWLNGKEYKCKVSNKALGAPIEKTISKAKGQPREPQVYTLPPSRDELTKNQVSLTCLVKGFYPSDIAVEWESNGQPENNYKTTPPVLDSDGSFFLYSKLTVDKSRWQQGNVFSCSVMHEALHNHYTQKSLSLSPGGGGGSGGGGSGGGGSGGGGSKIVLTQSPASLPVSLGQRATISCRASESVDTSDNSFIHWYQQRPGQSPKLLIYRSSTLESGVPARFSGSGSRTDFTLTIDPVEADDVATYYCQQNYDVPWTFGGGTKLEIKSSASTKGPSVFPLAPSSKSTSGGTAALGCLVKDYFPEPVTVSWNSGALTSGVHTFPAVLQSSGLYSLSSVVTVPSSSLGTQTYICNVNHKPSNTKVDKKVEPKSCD
light 1: NIVMTPTPKFLPVSSGDRVTMTCRASQSVDNYVAWYQQKPGQSPKLLIYYASNRYIGVPDRFTGSGSGTDFTFTISSVQVEDLAVYFCQQHYSSPYTFGSGTKLEIKRTVAAPSVFIFPPSDRKLKSGTASVVCLLNNFYPREAKVQWKVDNALQSGNSQESVTEQDSKDSTYSLSSTLTLSKADYEKHKVYACEVTHQG
light 2: EVILVESGGGLVKPGGSLKLSCAASGFSFSSYTMSWVRQTPEKRLDWVATISGGGRDIYYPDSVKGRFTISRDNAKNTLYLEMSSLMSEDTALYYCVLLTGRVYFALDSWGQGTSVTVSSASVAAPSVFIFPPSDEQLKSGTASVVCLLNNFYPREAKVQWKVDNALQSGNSQESVTEQDSKDSTYSLSSTLTLSKADYEKHKVYACEVTHQGLSSPVTKSFNRGEC
notes: also called PD1TIM3-0358 (2 + 2); Bispec AB 0358 (2+2)
B5: PD1-0103-0312 (antibody, human IgG1, V domains shown)
VH: EVQLLESGGGLVQPGGSLRLSCAASGFSFSSYTMSWVRQAPGKGLEWVATISGGGRDIYYPDSVKGRFTISRDNSKNTLYLQMNSLRAEDTAVYYCVLLTGRVYFALDSWGQGTLVTVSS
VL: DIVMTQSPDSLAVSLGERATINCKASESVDTSDNSFIHWYQQKPGQSPKLLIYRSSTLESGVPDRFSGSGSGTDFTLTISSLQAEDVAVYYCQQNYDVPWTFGQGTKVEIK
notes: Humanized
B6: PD1-0103-0313 (antibody, human IgG1, V domains shown)
VH: EVQLLESGGGLVQPGGSLRLSCAASGFSFSSYTMSWVRQAPGKGLEWVATISGGGRDIYYPDSVKGRFTISRDNSKNTLYLQMNSLRAEDTAVYYCVLLTGRVYFALDSWGQGTLVTVSS
VL: DVVMTQSPLSLPVTLGQPASISCRASESVDTSDNSFIHWYQQRPGQSPRLLIYRSSTLESGVPDRFSGSGSGTDFTLKISRVEAEDVGVYYCQQNYDVPWTFGQGTKVEIK
notes: Humanized
B7: PD1-0103-0314 (antibody, human IgG1, V domains shown)
VH: EVQLLESGGGLVQPGGSLRLSCAASGFSFSSYTMSWVRQAPGKGLEWVATISGGGRDIYYPDSVKGRFTISRDNSKNTLYLQMNSLRAEDTAVYYCVLLTGRVYFALDSWGQGTLVTVSS
VL: EIVLTQSPATLSLSPGERATLSCRASESVDTSDNSFIHWYQQKPGQSPRLLIYRSSTLESGIPARFSGSGSGTDFTLTISSLEPEDFAVYYCQQNYDVPWTFGQGTKVEIK
notes: Humanized
B8: PD1-0103-0315 (antibody, human IgG1, V domains shown)
VH: EVQLLESGGGLVQPGGSLRLSCAASGFSFSSYTMSWVRQAPGKGLEWVATISGGGRDIYYPDSVKGRFTISRDNSKNTLYLQMNSLRAEDTAVYYCVLLTGRVYFALDSWGQGTLVTVSS
VL: EIVLTQSPATLSLSPGERATLSCRASESVDTSDNSFIHWYQQKPGQSPRLLIYRSSTLESGIPARFSGSGSGTDFTLTISSLEPEDFAVYYCQQNYDVPWTFGQGTKVEIK
notes: Humanized
B9: Tim3_0018MutNS (antibody, V domains shown)
VH: QVTLKESGPGILQPSQTLSLTCSFSGFSLSTSGMSVGWIRQPSGKGLEWLAHIWLNDDVFFNPALKRRLTISKDTSNNQVFLQIASVVTADTATYYCVRANGYLYALDYWGQGISVTVSS
VL: QIVLTQSPAIMSASPGQKVTITCSASSSVSYTQWYQQKLGSSPKLWIYDAFKLAPGVPARFSGSGTGTSYSLTISSMEAEDAASYFCHQWSSYPWTFGGGTKLEIK

Columns and labels:
[1] = biological target: T1, full-length human Tim3 on cells (CHO-K1 stably transfected with plasmid 15312_hTIM3-fl_pUC_Neo) (human, UniProt Q8TDQ0 22-301); assay: cell-based or functional assay
[2] = biological target: T1, full-length human Tim3 on cells (CHO-K1 …); assay: cell ELISA on CHO-K1 cells with full-length human Tim3
[3] = biological target: T2, full-length human PD1 on cells (CHO-K1 stably transfected with plasmid 15311_hPD1-fl_pUC_Neo) (human, UniProt Q15116 25-288); assay: cell-based or functional assay
human PD1-ECD [4] = biological target: T3, human PD1-ECD (human, UniProt Q15116 25-170); assay: SPR Biacore T200, Ab captured on anti-human Fc IgG, hu PD1-ECD in solution, 25 C
T3 construct: SPR analyte; also called hu PD1-ECD

[5] = biological target: T4, biotinylated TIM3-ECD-AviHis (human, UniProt Q8TDQ0 22-202, biotinylated, site not stated); assay: ELISA on coated biotinylated TIM3-ECD-AviHis
T4 construct: also called huTIM3; Hu TIM3

[6] = biological target: T5, biotinylated PD1-ECD-AviHis (human, UniProt Q15116 25-170, biotinylated, site not stated); assay: ELISA on coated biotinylated PD1-ECD-AviHis
T5 construct: also called huPD1; hu PD1

monomeric human Tim3-ECD = biological target: T6, monomeric human Tim3-ECD (human, UniProt Q8TDQ0 22-202); assay: SPR Biacore T200, Ab captured on anti-human Fab IgG, hu Tim3-ECD in solution, 25 C
T6 construct: SPR analyte; also called huTim3; hu Tim3-ECD

human PD1-ECD [7] = biological target: T3, human PD1-ECD; assay: SPR; row head 'Affinity KD 37°C [nM] *)', second of two values (equals the 25 C value of Table 9)
[8] = biological target: T7, biotinylated cynoPD1-ECD-Biotin (cynomolgus); assay: ELISA on coated cynoPD1-ECD-Biotin
T7 construct: extracellular domain; also called cyPD1

human PD1-ECD [9] = biological target: T3, human PD1-ECD; assay: SPR; row head 'Affinity KD 37°C [nM] *)', first of two values, footnote not explained
[10] = biological target: T5, biotinylated PD1-ECD-AviHis; assay: ELISA on coated biotinylated PD1-ECD-AviHis; remark: listed apart in the source
[11] = biological target: T7, biotinylated cynoPD1-ECD-Biotin; assay: ELISA, cynomolgus cross-reactivity
human PD1-ECD [12] = biological target: T3, human PD1-ECD; assay: SPR Biacore T200, Ab captured on anti-human IgG, 25 C
[13] = biological target: T2, full-length human PD1 on cells (CHO-K1 …); assay: cell ELISA on CHO-K1 cells with full-length human PD1
[14] = biological target: T5, biotinylated PD1-ECD-AviHis; assay: ELISA on coated biotinylated PD1-ECD-AviHis; remark: listed apart in the source
[15] = biological target: T1, full-length human Tim3 on cells (CHO-K1 …); assay: cellular ELISA on CHO-TIM3 (values in relation to the samples max value)
[16] = biological target: T1, full-length human Tim3 on cells (CHO-K1 …); assay: cellular ELISA on CHO-TIM3
Tim3-ECD-His-Biotin [17] = biological target: T8, Tim3-ECD-His-Biotin (human, UniProt Q8TDQ0 22-202, biotinylated with BirA Ligase, site not stated); assay: ELISA on human Tim3 (values in relation to the samples max value)
T8 construct: also called human Tim3 (ELISA); Biochem Human

Tim3-ECD-His-Biotin [18] = biological target: T8, Tim3-ECD-His-Biotin; assay: ELISA on human Tim3

Binder	IFN-gamma release in MLR at 1 µg/ml antibody, % of rec hu IL-2 (20 EU/ml) = 100% [1] [%]	IFN-gamma release in MLR at 10 µg/ml antibody, % of rec hu IL-2 (20 EU/ml) = 100% [1] [%]	IFN-gamma release in MLR at 40 µg/ml antibody, % of rec hu IL-2 (20 EU/ml) = 100% [1] [%]	EC50 [2] [µg/mL]	Kd (human PD1-ECD [7]) [nM]	EC50 [8] [µg/mL]	Kd (human PD1-ECD [9]) [nM]	EC50 [10] [nM]	EC50 [11] [nM]	Kd (human PD1-ECD [12]) [nM]	koff (human PD1-ECD [12]) [s⁻¹]	kon (human PD1-ECD [12]) [M⁻¹ s⁻¹]	EC50 [13] [µg/mL]	EC50 [14] [µg/mL]	also measured
B1	101	108	112	0.073	–	–	–	–	–	–	–	–	–	–	–
B2	18	16	25	0.069	–	–	–	–	–	–	–	–	–	–	–
B3	0	30	35	3.71	–	–	–	–	–	–	–	–	–	–	–
B4	–	–	–	–	–	–	–	–	–	–	–	–	–	–	EC50 of IFN-gamma secretion in MLR, donors D1 + D3 [3]: 6.8 nM; EC50 of IFN-gamma secretion in MLR, donors D2 + D4 [3]: 5.7 nM; Kd (human PD1-ECD [4]): 0.3 nM; EC50 [5]: 0.19 nM; EC50 [6]: 0.08 nM; Kd (monomeric human Tim3-ECD): 240 nM
B5	–	–	–	–	1.8	0.0083	1.5	0.1	0.08	1.8	0.000345	195000	0.0101	0.011	–
B6	–	–	–	–	2.3	0.011	1.9	0.07	0.06	2.3	0.000367	160000	0.0108	0.015	–
B7	–	–	–	–	1.5	0.0083	1.6	0.07	0.05	1.5	0.000279	187000	0.0077	0.011	–
B8	–	–	–	–	1.5	0.0079	1.7	0.06	0.04	1.5	0.000291	189000	0.0073	0.01	–
B9	–	–	–	–	–	–	–	–	–	–	–	–	–	–	EC50 [15]: 0.0112 µg/mL; Inflexion point [16]: 11.1 ng/mL; EC50 (Tim3-ECD-His-Biotin [17]): 0.0103 µg/mL; Inflexion point (Tim3-ECD-His-Biotin [18]): 6.5 ng/mL
